Assay results as given in paper PMC5679657, “KSHV inhibits stress granule formation by viral ORF57 blocking PKR activation” (PLoS Pathogens, 2017).

B1: KSHV ORF57, untagged (pcDNA-ORF57) (natural protein)
chain: MVQAMIDMDIMKGILEDSVSSSEFDESRDDETDAPTLEDEQLSEPAEPPADERIRGTQSAQGIPPPLGRIPKKSQGRSQLRSEIQFCSPLSRPRSPSPVNRYGKKIKFGTAGQNTRPPPEKRPRRRPRDRLQYGRTTRGGQCRAAPKRATRRPQVNCQRQDDDVRQGVSDAVKKLRLPASMIIDGESPRFDDSIIPRHHGACFNVFIPAPPSHVPEVFTDRDITALIRAGGKDDELINKKISAKKIDHLHRQMLSFVTSRHNQAYWVSCRRETAAAGGLQTLGAFVEEQMTWAQTVVRHGGWFDEKDIDIILDTAIFVCNAFVTRFRLLHLSCVFDKQSELALIKQVAYLVAMGNRLVEACNLLGEVKLNFRGGLLLAFVLTIPGMQSRRSISARGQELFRTLLEYYRPGDVMGLLNVIVMEHHSLCRNSECAAATRAAMGSAKFNKGLFFYPLS
notes: KSHV ORF57, untagged, expressed from pcDNA-ORF57; also called untagged ORF57; source: HEK293, transfected, in lysate
B2: KSHV ORF57-Flag (wild type, pVM7) (natural protein)
chain: B1 chain
notes: KSHV ORF57 (mRNA transcript accumulation protein, MTA), wild type, expressed from pVM7; also called ORF57 wt; ORF57-wt-Flag; source: HEK293 or HeLa, transfected, in lysate

Key:
[1] = molecular target: T1, PKR ΔPK-Myc-Flag (aa 1-270) (UniProt P19525 1-270); assay: co-IP; HEK293 extract with Myc-Flag-tagged PKR FL, ΔPK or ΔRBM mixed with extract with untagged ORF57, RNase A/T1-digested; IP with anti-Flag for PKR; blot anti-ORF57; conditions: partners not purified
T1 construct: PKR (EIF2AK2) aa 1-270, kinase domain deleted; made from pPKR-FL; also called N-terminal RBM domain of PKR; source: HEK293, transfected, in lysate
T1 sequence (P19525 1-270, stated change not applied): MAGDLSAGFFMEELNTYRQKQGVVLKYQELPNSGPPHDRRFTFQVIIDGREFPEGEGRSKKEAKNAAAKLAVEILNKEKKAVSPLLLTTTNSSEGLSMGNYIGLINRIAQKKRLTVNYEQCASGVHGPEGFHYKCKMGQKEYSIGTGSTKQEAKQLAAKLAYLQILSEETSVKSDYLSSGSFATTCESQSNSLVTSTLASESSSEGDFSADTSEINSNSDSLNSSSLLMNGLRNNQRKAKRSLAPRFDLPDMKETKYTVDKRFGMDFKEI

[2] = molecular target: T2, phosphorylated full-length PKR-Myc-Flag from arsenite-treated cells (UniProt P19525 1-551, phosphorylated; phospho-Thr 451 detected with anti-phosphorylated PKR (Thr 451)); assay: co-IP; extract of HEK293 cells with PKR-Myc-Flag, untreated or treated with arsenite for 30 min, mixed with HEK293 extract with ORF57-Flag, RNase A/T1-digested; pulled down with anti-Myc beads; blots anti-Flag, anti-pPKR (Thr 451), anti-ORF57; conditions: partners not purified
T2 construct: protein kinase R (PKR, EIF2AK2), full length, from pPKR-FL, phosphorylated in arsenite-treated cells; Other phosphorylated sites are not determined in this experiment; also called p-PKR; phosphorylated FL PKR; source: HEK293, transfected, treated with arsenite for 30 min, in lysate
T2 sequence (P19525 whole entry): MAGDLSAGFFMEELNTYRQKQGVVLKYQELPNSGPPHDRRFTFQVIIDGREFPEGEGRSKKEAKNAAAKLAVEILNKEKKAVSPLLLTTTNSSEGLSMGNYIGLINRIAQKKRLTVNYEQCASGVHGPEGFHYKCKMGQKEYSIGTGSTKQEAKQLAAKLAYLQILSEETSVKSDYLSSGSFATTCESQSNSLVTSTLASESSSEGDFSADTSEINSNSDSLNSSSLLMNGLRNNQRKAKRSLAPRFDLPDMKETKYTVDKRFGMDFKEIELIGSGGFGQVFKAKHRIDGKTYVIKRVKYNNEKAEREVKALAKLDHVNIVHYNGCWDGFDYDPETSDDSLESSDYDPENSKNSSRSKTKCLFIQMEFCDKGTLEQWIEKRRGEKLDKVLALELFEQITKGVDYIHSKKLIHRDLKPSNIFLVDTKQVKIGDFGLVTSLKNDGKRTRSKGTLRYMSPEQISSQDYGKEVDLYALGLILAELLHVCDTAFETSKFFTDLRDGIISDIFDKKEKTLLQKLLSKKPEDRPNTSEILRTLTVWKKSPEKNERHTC

| Binder | fold binding relative to FL PKR [1] [fold] | fold binding relative to PKR from untreated cells [2] [times] |
| --- | --- | --- |
| B1 | ~6.5 |  |
| B2 |  | ~3 |
